This note sets out measurements from paper PMC11966277.

Broadly, the Km is the concentration of substrate that gives half-maximal velocity. For orientation: kcat means the number of substrate molecules converted per active site and unit of time at saturation. What is called kcat/Km is the turnover number divided by the Michaelis constant.

To fix the notation:
B1: Oxalate decarboxylase (OxDC) (Bacillus subtilis subsp. subtilis str. 168; H279D/T263E) (protein)
chain: MKKQNDIPQPIRGDKGATVKIPRNIERDRQNPDMLVPPETDHGTVSNMKFSFSDTHNRLEKGGYAREVTVRELPISENLASVNMRLKPGAIRELHWHKEAEWAYMIYGSARVTIVDEKGRSFIDDVGEGDLWYFPSGLPHSIQALEEGAEFLLVFDDGSFSENSTFQLTDWLAHTPKEVIAANFGVTKEEISNLPGKEKYIFENQLPGSLKDDIVEGPNGEVPYPFTYRLLEQEPIESEGGKVYIADSTNFKVSKTIASALVEVEPGAMRELHWHPNTDEWQYYISGKARMTVFASDGHARTFNYQAGDVGYVPFAMGHYVENIGDEPLVFLEIFKDDHYADVSLNQWLAMLPETFVQAHLDLGKDFTDVLSKEKHPVVKKKCSK
B2: Oxalate decarboxylase (OxDC) (Bacillus subtilis subsp. subtilis str. 168) (protein)
chain: MKKQNDIPQPIRGDKGATVKIPRNIERDRQNPDMLVPPETDHGTVSNMKFSFSDTHNRLEKGGYAREVTVRELPISENLASVNMRLKPGAIRELHWHKEAEWAYMIYGSARVTIVDEKGRSFIDDVGEGDLWYFPSGLPHSIQALEEGAEFLLVFDDGSFSENSTFQLTDWLAHTPKEVIAANFGVTKEEISNLPGKEKYIFENQLPGSLKDDIVEGPNGEVPYPFTYRLLEQEPIESEGGKVYIADSTNFKVSKTIASALVTVEPGAMRELHWHPNTHEWQYYISGKARMTVFASDGHARTFNYQAGDVGYVPFAMGHYVENIGDEPLVFLEIFKDDHYADVSLNQWLAMLPETFVQAHLDLGKDFTDVLSKEKHPVVKKKCSK
B3: Oxalate decarboxylase (OxDC) (Bacillus subtilis subsp. subtilis str. 168; H279D) (protein)
chain: MKKQNDIPQPIRGDKGATVKIPRNIERDRQNPDMLVPPETDHGTVSNMKFSFSDTHNRLEKGGYAREVTVRELPISENLASVNMRLKPGAIRELHWHKEAEWAYMIYGSARVTIVDEKGRSFIDDVGEGDLWYFPSGLPHSIQALEEGAEFLLVFDDGSFSENSTFQLTDWLAHTPKEVIAANFGVTKEEISNLPGKEKYIFENQLPGSLKDDIVEGPNGEVPYPFTYRLLEQEPIESEGGKVYIADSTNFKVSKTIASALVTVEPGAMRELHWHPNTDEWQYYISGKARMTVFASDGHARTFNYQAGDVGYVPFAMGHYVENIGDEPLVFLEIFKDDHYADVSLNQWLAMLPETFVQAHLDLGKDFTDVLSKEKHPVVKKKCSK
B4: Oxalate decarboxylase (OxDC) (Bacillus subtilis subsp. subtilis str. 168; Y244R) (protein)
chain: MKKQNDIPQPIRGDKGATVKIPRNIERDRQNPDMLVPPETDHGTVSNMKFSFSDTHNRLEKGGYAREVTVRELPISENLASVNMRLKPGAIRELHWHKEAEWAYMIYGSARVTIVDEKGRSFIDDVGEGDLWYFPSGLPHSIQALEEGAEFLLVFDDGSFSENSTFQLTDWLAHTPKEVIAANFGVTKEEISNLPGKEKYIFENQLPGSLKDDIVEGPNGEVPYPFTYRLLEQEPIESEGGKVRIADSTNFKVSKTIASALVTVEPGAMRELHWHPNTHEWQYYISGKARMTVFASDGHARTFNYQAGDVGYVPFAMGHYVENIGDEPLVFLEIFKDDHYADVSLNQWLAMLPETFVQAHLDLGKDFTDVLSKEKHPVVKKKCSK
B5: Oxalate decarboxylase (OxDC) (Bacillus subtilis subsp. subtilis str. 168; I191F/T263E) (protein)
chain: MKKQNDIPQPIRGDKGATVKIPRNIERDRQNPDMLVPPETDHGTVSNMKFSFSDTHNRLEKGGYAREVTVRELPISENLASVNMRLKPGAIRELHWHKEAEWAYMIYGSARVTIVDEKGRSFIDDVGEGDLWYFPSGLPHSIQALEEGAEFLLVFDDGSFSENSTFQLTDWLAHTPKEVIAANFGVTKEEFSNLPGKEKYIFENQLPGSLKDDIVEGPNGEVPYPFTYRLLEQEPIESEGGKVYIADSTNFKVSKTIASALVEVEPGAMRELHWHPNTHEWQYYISGKARMTVFASDGHARTFNYQAGDVGYVPFAMGHYVENIGDEPLVFLEIFKDDHYADVSLNQWLAMLPETFVQAHLDLGKDFTDVLSKEKHPVVKKKCSK
B6: Oxalate decarboxylase (OxDC) (Bacillus subtilis subsp. subtilis str. 168; H279D/I191F) (protein)
chain: MKKQNDIPQPIRGDKGATVKIPRNIERDRQNPDMLVPPETDHGTVSNMKFSFSDTHNRLEKGGYAREVTVRELPISENLASVNMRLKPGAIRELHWHKEAEWAYMIYGSARVTIVDEKGRSFIDDVGEGDLWYFPSGLPHSIQALEEGAEFLLVFDDGSFSENSTFQLTDWLAHTPKEVIAANFGVTKEEFSNLPGKEKYIFENQLPGSLKDDIVEGPNGEVPYPFTYRLLEQEPIESEGGKVYIADSTNFKVSKTIASALVTVEPGAMRELHWHPNTDEWQYYISGKARMTVFASDGHARTFNYQAGDVGYVPFAMGHYVENIGDEPLVFLEIFKDDHYADVSLNQWLAMLPETFVQAHLDLGKDFTDVLSKEKHPVVKKKCSK
B7: Oxalate decarboxylase (OxDC) (Bacillus subtilis subsp. subtilis str. 168; I191F) (protein)
chain: MKKQNDIPQPIRGDKGATVKIPRNIERDRQNPDMLVPPETDHGTVSNMKFSFSDTHNRLEKGGYAREVTVRELPISENLASVNMRLKPGAIRELHWHKEAEWAYMIYGSARVTIVDEKGRSFIDDVGEGDLWYFPSGLPHSIQALEEGAEFLLVFDDGSFSENSTFQLTDWLAHTPKEVIAANFGVTKEEFSNLPGKEKYIFENQLPGSLKDDIVEGPNGEVPYPFTYRLLEQEPIESEGGKVYIADSTNFKVSKTIASALVTVEPGAMRELHWHPNTHEWQYYISGKARMTVFASDGHARTFNYQAGDVGYVPFAMGHYVENIGDEPLVFLEIFKDDHYADVSLNQWLAMLPETFVQAHLDLGKDFTDVLSKEKHPVVKKKCSK

Substrate in the data set: O=C(O)C(=O)O
As to the kind of experiment: purified protein. Particulars: pH 4.2 (optimum), 52 mM sodium acetate, 140 mM NaCl, 37 °C, potassium oxalate 0-150 mM, Mn enzyme.
As for B1, the Km was determined as 5 ± 1 mM, the kcat was 111 s⁻¹ and the kcat/Km is 22000 M⁻¹ s⁻¹.
Consider B2, for which the Km is 7 ± 2 mM, the kcat amounted to 103 s⁻¹ and the kcat/Km worked out at 15000 M⁻¹ s⁻¹.
Consider B3, for which the Km came to 6 ± 2 mM, the kcat came out at 58 s⁻¹ and the kcat/Km amounted to 10000 M⁻¹ s⁻¹.
The corresponding values for B4 are 5 ± 1 mM, 95 s⁻¹ and 19000 M⁻¹ s⁻¹.
Regarding B5, the Km is recorded as 5 ± 1 mM, the kcat stood at 37 s⁻¹ and the kcat/Km stood at 7000 M⁻¹ s⁻¹.
In the case of B6, the Km was found to be 5 ± 2 mM, the kcat is 110 s⁻¹ and the kcat/Km is 22000 M⁻¹ s⁻¹.
The corresponding values for B7 are 7 ± 2 mM, 101 s⁻¹ and 14000 M⁻¹ s⁻¹.
